From article PMC3853298 (2013)

B1: mouse decorin core protein, wild type (residues 45-354) [modified: N-linked glycans (four consensus sites for N-linked glycosylation); N-linked glycans (four consensus sites for N-linked glycosylation)] [mouse] / rat tail type I collagen … (parent complex)
chain 1: APLALISMCPYRCQCHLRVVQCSDLGLDKVPWDFPPDTTLLDLQNNKITEIKEGAFKNLKDLHTLILVNNKISKISPEAFKPLVKLERLYLSKNQLKELPEKMPRTLQELRVHENEITKLRKSDFNGLNNVLVIELGGNPLKNSGIENGAFQGLKSLSYIRISDTNITAIPQGLPTSLTEVHLDGNKITKVDAPSLKGLINLSKLGLSFNSITVMENGSLANVPHLRELHLDNNKLLRVPAGLAQHKYIQVVYLHNNNISAVGQNDFCRAGHPSRKASYSAVSLYGNPVRYWEIFPNTFRCVYVRSAIQLGNYKAAA
chain 2: not shown
chain 3: not shown

Variants of: B1
Assay: solid-phase binding assay (immobilized collagen, antibody-linked color reaction); decorin 2.5 µM (highest concentration); WT without collagen background est. 0.05; parent: 0.4; read off a plot

| response | Variant |
| --- | --- |
| ~0.28 OD 492 | chain 1 Y11A, chain 1 R12A, chain 1 Q14A |
| ~0.18 OD 492 | chain 1 R111E |
